Reference: article PMC6503952, “Nuclear actin interactome analysis links actin to KAT14 histone acetyl transferase and mRNA splicing” (Journal of Cell Science, 2019)

Biological target: Rabbit skeletal muscle actin (rabbit, UniProt P68135 1-377)
Assay: pull-down; purified His–KAT14 or His–GST (from a lysate) held on Ni-NTA agarose beads, washed with up to 500 mM NaCl, then incubated with a 4-fold amount of rabbit skeletal muscle actin in G-buffer (5 mM Tris-HCl pH 7.5, 0.2 mM ATP, 0.2 mM CaCl2, 0.5 mM DTT) for 3 h at +4°C; western blot
Settings: both partners purified

B1: Recombinant human His-KAT14 (enzyme)
chain: MDSSIHLSSLISRHDDEATRTSTSEGLEEGEVEGETLLIVESEDQASVDLSHDQSGDSLNSDEGDVSWMEEQLSYFCDKCQKWIPASQLREQLSYLKGDNFFRFTCSDCSADGKEQYERLKLTWQQVVMLAMYNLSLEGSGRQGYFRWKEDICAFIEKHWTFLLGNRKKTSTWWSTVAGCLSVGSPMYFRSGAQEFGEPGWWKLVHNKPPTMKPEGEKLSASTLKIKAASKPTLDPIITVEGLRKRASRNPVESAMELKEKRSRTQEAKDIRRAQKEAAGFLDRSTSSTPVKFISRGRRPDVILEKGEVIDFSSLSSSDRTPLTSPSPSPSLDFSAPGTPASHSATPSLLSEADLIPDVMPPQALFHDDDEMEGDGVIDPGMEYVPPPAGSVASGPVVGVRKKVRGPEQIKQEVESEEEKPDRMDIDSEDTDSNTSLQTRAREKRKPQLEKDTKPKEPRYTPVSIYEEKLLLKRLEACPGAVAMTPEARRLKRKLIVRQAKRDRGLPLFDLDQVVNAALLLVDGIYGAKEGGISRLPAGQATYRTTCQDFRILDRYQTSLPSRKGFRHQTTKFLYRLVGSEDMAVDQSIVSPYTSRILKPYIRRDYETKPPKLQLLSQIRSHLHRSDPHWTPEPDAPLDYCYVRPNHIPTINSMCQEFFWPGIDLSECLQYPDFSVVVLYKKVIIAFGFMVPDVKYNEAYISFLFVHPEWRRAGIATFMIYHLIQTCMGKDVTLHVSASNPAMLLYQKFGFKTEEYVLDFYDKYYPLESTECKHAFFLRLRR
notes: KAT14, human; also called His-tagged KAT14; source: Sf9 (MultiBac baculovirus), purified (Ni-NTA, Superdex 200)
B1: binds.
